Measurements from article PMC3121797.
Where “and” joins values, the source holds several entries; their conditions need not be identical. Equal entries are not always repeated.

Biological target: unliganded V1/V2 loop-deleted envelope glycoproteins
Experiment: ELISA

Substance: C34-Ig fusion protein (from UniProt P04578 628-661) (Fc fusion)
- C34-Ig binding without sCD4 as percent of that with sCD4: 20% and 45%
